Laboratory results from patent US10400024B2, “Cleavage and exchange of major histocompatibility complex ligands employing azobenzene-containing peptides” (priority 2014, dated 2019).
Entries after “also recorded” stand apart in the source; their conditions may differ.

What was measured:
[1] = assay type: physicochemical
[2] = test system: PBMCs (CD8+ cells); experiment: Cell viability assay with sodium dithionite (Annexin V, LIVE/DEAD, flow cytometry); assay type: cell-based, human; conditions: 10 mM, 16 hours exposure; primary and cultured cells
Procedure: 10^6 freshly isolated PBMCs from healthy volunteers were incubated in 1 ml RPMI 1640 culture media containing HEPES-buffered 1 mM to 100 mM sodium dithionite (pH 7.4) at 37° C., 5% CO2. After 1-hour or 16-hour incubation, the cells were immediately assessed for cell viability or rested overnight in fresh media (for 1-hour treatment only). The cells were harvested, washed with PBS twice and stained with cell viability LIVE/DEAD® fixable near-IR stain (Molecular Probes®). The cells were then washed again with PBS and stained with anti-human CD8 (Clone RPA-T8; BioLegend) Brilliant Violet 421™ antibodies for 15 minutes. Thereafter, the cells were washed once with PBS and once with 1× Annexin V binding buffer (10 mM HEPES, pH 7.4; 140 mM NaCl; 2.5 mM CaCl2) prior to incubation with Annexin V FITC (eBioscience) for 10 minutes. The stained cells were immediately analyzed on BD LSRII flow cytometer and data were processed using FlowJo (Tree Star).

[3] = biological target: HLA-A*02:01 (Homo sapiens, UniProt P04439, D140Y/D185E/D98H/E176V/E277Q/G131W/G231S/I119V/I121R/I166T/I218V/L300P/L318F/N151K/N90K/P208A/P217A/Q86G/Q94H/R138H/R169H/T345S); conditions: cited from earlier work

Question: Which results are given for SIIPSGPLK [Peptide 10]?
Answer: epitope modification after oxidative conditions ([1]; 0.3 mM sodium periodate, RT, 2 hours): cleaved the N-terminal Ser; also recorded: N-terminal serine of 10 was cleaved; epitope modification in PBS ([1]; PBS control incubation): unmodified

Question: For `O=S([O-])S(=O)[O-].[Na+].[Na+]` [dithionite, sodium dithionite], which “apoptosis or cell death of cells exposed to buffered dithionite” value [2] is on record?
Answer: Its value is “little sign of apoptosis or cell death”.

Question: Which “known binder class to HLA-A*02:01” value [3] does the source give for VMLRWGVLA here?
Answer: Its value is “intermediate-”.

Question: With SLENFRAYV as the molecule, how does the “known binder class to HLA-A*02:01” value [3] read?
Answer: The value was “intermediate-”.

Question: With ALQLLLEV as the molecule, how does the “known binder class to HLA-A*02:01” value [3] read?
Answer: The value was “intermediate-”.

Question: For NMLSTVLGV, which “known binder class to HLA-A*02:01” value [3] is on record?
Answer: The value was “high-affinity”.
